Laboratory results taken from patent publication USRE38313.

Key:
[1] = target: human MHC Class II molecules expressed on cells (human); assay: cell-based or functional assay
[2] = target: human MHC Class II molecules expressed on cells (human); assay: flow cytometry on Daudi cells preincubated with the competitor soluble CHO/LAG-3D1D2, GAH-FITC detection
[3] = target: human MHC Class II molecules expressed on cells (human); assay: flow cytometry on Daudi cells, GAH-FITC detection, no preincubation
[4] = target: human MHC Class II molecules expressed on cells (human); assay: competition by flow cytometry on Daudi cells; soluble CHO/LAG-3D1D2 first, then monomeric LAG-3D1D2Ig
[5] = target: human MHC Class II molecules expressed on cells (human); assay: competition by flow cytometry on Daudi cells; soluble CHO/LAG-3D1D2 first, then dimeric LAG-3D1D4Ig

Substance	inhibition of the proliferation of clone T154 preincubated with cross-linked LAG-3Ig [1] [%]	Mean Fluorescence [2]	Mean Fluorescence [3]	percent inhibition of the binding of monomeric LAG-3D1D2Ig [4] [%]	percent inhibition of the binding of dimeric LAG-3D1D4Ig [5] [%]
LAG-3 D1-D4 Ig (from UniProt P01857 99-330) (Fc fusion)	> 50	8.5	20.8		
soluble LAG-3 D1D2 fragment produced by CHO cells (receptor)				27	58
LAG-3 D1D2 Ig (from UniProt P01857 99-330) (Fc fusion)			62.5		
